Test results from article doi:10.1101/557116 (bioRxiv, 2019).

How the values were obtained:
bacILT7 24-435 = bacILT7 24-435 (human, UniProt P59901 24-435); experiment: SPR
bacILT7 24-223 = bacILT7 24-223 (human, UniProt P59901 24-223, fluorescent label (Protein Labeling Kit RED-NHS)); experiment: MST
cross-linking = biological target: the molecule itself; experiment: cross-linking

bacILT7 24-435, sequence (P59901 24-435): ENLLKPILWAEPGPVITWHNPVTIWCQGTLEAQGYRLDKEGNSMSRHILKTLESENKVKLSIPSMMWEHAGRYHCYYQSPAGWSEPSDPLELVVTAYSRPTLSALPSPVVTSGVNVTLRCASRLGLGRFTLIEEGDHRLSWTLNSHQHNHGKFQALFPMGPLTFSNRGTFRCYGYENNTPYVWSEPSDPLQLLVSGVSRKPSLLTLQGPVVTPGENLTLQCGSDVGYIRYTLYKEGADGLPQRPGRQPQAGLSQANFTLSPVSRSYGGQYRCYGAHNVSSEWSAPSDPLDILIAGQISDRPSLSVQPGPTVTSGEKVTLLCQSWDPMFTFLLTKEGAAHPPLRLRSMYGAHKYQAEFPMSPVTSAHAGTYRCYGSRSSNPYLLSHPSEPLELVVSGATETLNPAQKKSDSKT
bacILT7 24-223, sequence (P59901 24-223): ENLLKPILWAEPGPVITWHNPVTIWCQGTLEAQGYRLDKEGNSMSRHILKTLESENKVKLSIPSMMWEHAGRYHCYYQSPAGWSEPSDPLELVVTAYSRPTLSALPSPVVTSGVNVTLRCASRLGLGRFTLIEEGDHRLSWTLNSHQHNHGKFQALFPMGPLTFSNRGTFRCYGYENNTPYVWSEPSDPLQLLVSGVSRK

| Binder | Kd (bacILT7 24-223) [µM] | other results |
| --- | --- | --- |
| GST-BST2 (80-147) (domain or fragment, human, UniProt Q10589 80-147, looked up) GFQDVEAQAATCNHTVMALMASLDAEKAQGQKKVEELEGEITTLNHKLQDASAEVERLRRENQVLSVR | – | Kd (bacILT7 24-435): 2.62 µM; koff (bacILT7 24-435): 0.00238 s⁻¹; kon (bacILT7 24-435): 908 M⁻¹ s⁻¹ |
| BST2 ectodomain (residues 47 to 159) WT (domain or fragment, human, UniProt Q10589 47-159, looked up) KANSEACRDGLRAVMECRNVTHLLQQELTEAQKGFQDVEAQAATCNHTVMALMASLDAEKAQGQKKVEELEGEITTLNHKLQDASAEVERLRRENQVLSVRIADKKYYPSSQD | 2.45 ± 0.3 | – |
| BST2 ectodomain (residues 47 to 159) D129A (domain or fragment, human, UniProt Q10589 47-159, looked up) KANSEACRDGLRAVMECRNVTHLLQQELTEAQKGFQDVEAQAATCNHTVMALMASLDAEKAQGQKKVEELEGEITTLNHKLQAASAEVERLRRENQVLSVRIADKKYYPSSQD | – | stoichiometry N (cross-linking): 2 |
| BST2 ectodomain (residues 47 to 159) L70D (domain or fragment, human, UniProt Q10589 47-159, looked up) KANSEACRDGLRAVMECRNVTHLDQQELTEAQKGFQDVEAQAATCNHTVMALMASLDAEKAQGQKKVEELEGEITTLNHKLQDASAEVERLRRENQVLSVRIADKKYYPSSQD | 5.55 ± 1 | – |
| BST2 ectodomain (residues 47 to 159) L127C (domain or fragment, human, UniProt Q10589 47-159, looked up) KANSEACRDGLRAVMECRNVTHLLQQELTEAQKGFQDVEAQAATCNHTVMALMASLDAEKAQGQKKVEELEGEITTLNHKCQDASAEVERLRRENQVLSVRIADKKYYPSSQD | 6.45 ± 1.2 | – |
| BST2 ectodomain (residues 47 to 159) Q87H (domain or fragment, human, UniProt Q10589 47-159, looked up) KANSEACRDGLRAVMECRNVTHLLQQELTEAQKGFQDVEAHAATCNHTVMALMASLDAEKAQGQKKVEELEGEITTLNHKLQDASAEVERLRRENQVLSVRIADKKYYPSSQD | 5.06 ± 1.1 | – |
| BST2 ectodomain (residues 47 to 159) R136A (domain or fragment, human, UniProt Q10589 47-159, looked up) KANSEACRDGLRAVMECRNVTHLLQQELTEAQKGFQDVEAQAATCNHTVMALMASLDAEKAQGQKKVEELEGEITTLNHKLQDASAEVEALRRENQVLSVRIADKKYYPSSQD | – | stoichiometry N (cross-linking): 2 |
| BST2 ectodomain (residues 47 to 159) T90P (domain or fragment, human, UniProt Q10589 47-159, looked up) KANSEACRDGLRAVMECRNVTHLLQQELTEAQKGFQDVEAQAAPCNHTVMALMASLDAEKAQGQKKVEELEGEITTLNHKLQDASAEVERLRRENQVLSVRIADKKYYPSSQD | 4.49 ± 0.9 | – |
